T1: human IL-18BP (human, UniProt O95998 31-194)
T1 construct: UniProt printed as 095998; also called hIL-18BP
T1 sequence: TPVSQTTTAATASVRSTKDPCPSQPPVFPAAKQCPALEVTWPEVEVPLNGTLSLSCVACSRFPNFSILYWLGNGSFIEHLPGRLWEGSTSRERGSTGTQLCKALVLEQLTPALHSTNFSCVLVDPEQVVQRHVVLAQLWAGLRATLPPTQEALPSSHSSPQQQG

B1: SA302a HC-T30S (antibody, V domains shown)
VH: QVQLQESGPGLVKPSQTLSLTCTVSGYSISSDYNAHWIRQPPGKGLEWIGYIHYSGSTNYNPSLKSRVTISRDTSKNQFSLKLSSVTAADTAVYYCARNYGSIYVNYFDYWGQGTLVTVSS
VL: EIVLTQSPATLSLSPGERATLSCSASSSVSYMYWYQQKPGQAPRPLIYRTSNLASGIPARFSGSGSGTDFTLTISSLEPEDFAVYYCQQYHSYPTFGGGTKVEIK
B2: SA302a HC-N33bF (antibody, V domains shown)
VH: B1 VH with S30T, N34F
VL: B1 VL
B3: SA302a HC-S31E (antibody, V domains shown)
VH: B1 VH with S30T, S31E
VL: B1 VL
B4: SA302a HC-S31A (antibody, V domains shown)
VH: B1 VH with S30T, S31A
VL: B1 VL
B5: SA302a HC-S31T (antibody, V domains shown)
VH: B1 VH with S30T, S31T
VL: B1 VL
B6: SA302a HC-Y33aN (antibody, V domains shown)
VH: B1 VH with S30T, Y33N
VL: B1 VL
B7: SA302a HC-S31P (antibody, V domains shown)
VH: B1 VH with S30T, S31P
VL: B1 VL
B8: SA302a HC-N33bR (antibody, V domains shown)
VH: B1 VH with S30T, N34R
VL: B1 VL
B9: SA302a HC-T30A (antibody, V domains shown)
VH: B1 VH with S30A
VL: B1 VL
B10: SA302a HC-S31N (antibody, V domains shown)
VH: B1 VH with S30T, S31N
VL: B1 VL
B11: SA302a HC-Y33aR (antibody, V domains shown)
VH: B1 VH with S30T, Y33R
VL: B1 VL
B12: SA302a HC-T30N (antibody, V domains shown)
VH: B1 VH with S30N
VL: B1 VL
B13: SA302a HC-N33bG (antibody, V domains shown)
VH: B1 VH with S30T, N34G
VL: B1 VL
B14: SA302a HC-T30L (antibody, V domains shown)
VH: B1 VH with S30L
VL: B1 VL
B15: SA302a HC-T30M (antibody, V domains shown)
VH: B1 VH with S30M
VL: B1 VL
B16: SA302a HC-T30V (antibody, V domains shown)
VH: B1 VH with S30V
VL: B1 VL
B17: SA302a HC-T30I (antibody, V domains shown)
VH: B1 VH with S30I
VL: B1 VL
B18: SA302a HC-S31G (antibody, V domains shown)
VH: B1 VH with S30T, S31G
VL: B1 VL
B19: SA302a HC-N33bY (antibody, V domains shown)
VH: B1 VH with S30T, N34Y
VL: B1 VL
B20: SA302a HC-Y33aE (antibody, V domains shown)
VH: B1 VH with S30T, Y33E
VL: B1 VL
B21: SA302a HC-T30F (antibody, V domains shown)
VH: B1 VH with S30F
VL: B1 VL
B22: SA302a HC-Y33aM (antibody, V domains shown)
VH: B1 VH with S30T, Y33M
VL: B1 VL
B23: SA302a HC-T30Q (antibody, V domains shown)
VH: B1 VH with S30Q
VL: B1 VL
B24: SA302a HC-D33I (antibody, V domains shown)
VH: B1 VH with S30T, D32I
VL: B1 VL
B25: SA302a HC-D33N (antibody, V domains shown)
VH: B1 VH with S30T, D32N
VL: B1 VL
B26: SA302a HC-S31Y (antibody, V domains shown)
VH: B1 VH with S30T, S31Y
VL: B1 VL
B27: SA302a HC-S31F (antibody, V domains shown)
VH: B1 VH with S30T, S31F
VL: B1 VL
B28: SA302a HC-T30Y (antibody, V domains shown)
VH: B1 VH with S30Y
VL: B1 VL
B29: SA302a HC-Y33aD (antibody, V domains shown)
VH: B1 VH with S30T, Y33D
VL: B1 VL
B30: SA302a HC-S31Q (antibody, V domains shown)
VH: B1 VH with S30T, S31Q
VL: B1 VL
B31: SA302a HC-S31M (antibody, V domains shown)
VH: B1 VH with S30T, S31M
VL: B1 VL
B32: SA302a HC-D33R (antibody, V domains shown)
VH: B1 VH with S30T, D32R
VL: B1 VL
B33: SA302a HC-Y33aL (antibody, V domains shown)
VH: B1 VH with S30T, Y33L
VL: B1 VL
B34: SA302a HC-Y33aS (antibody, V domains shown)
VH: B1 VH with S30T, Y33S
VL: B1 VL
B35: SA302a HC-Y33aV (antibody, V domains shown)
VH: B1 VH with S30T, Y33V
VL: B1 VL
B36: SA302a HC-N33bD (antibody, V domains shown)
VH: B1 VH with S30T, N34D
VL: B1 VL
B37: SA302a HC-Y33aH (antibody, V domains shown)
VH: B1 VH with S30T, Y33H
VL: B1 VL
B38: SA302a HC-S31I (antibody, V domains shown)
VH: B1 VH with S30T, S31I
VL: B1 VL
B39: SA302a HC-S31L (antibody, V domains shown)
VH: B1 VH with S30T, S31L
VL: B1 VL
B40: SA302a HC-D33H (antibody, V domains shown)
VH: B1 VH with S30T, D32H
VL: B1 VL
B41: SA302a HC-T30E (antibody, V domains shown)
VH: B1 VH with S30E
VL: B1 VL
B42: SA302a HC-S31H (antibody, V domains shown)
VH: B1 VH with S30T, S31H
VL: B1 VL
B43: SA302a HC-T30G (antibody, V domains shown)
VH: B1 VH with S30G
VL: B1 VL
B44: SA302a HC-S31V (antibody, V domains shown)
VH: B1 VH with S30T, S31V
VL: B1 VL

Where a chain is given by its changes, count along the chain named. Names may count otherwise.

This assay concerns the target T1, human IL-18BP. Put plainly: BLI, apparent KD. (In BLI a coated tip is dipped into the sample, and binding shifts an interference pattern.)
For the molecule B1, the Kd stood at 0.66 nM.

For the molecule B2, the Kd is 5.24 nM. As for B3, the figure is 1.53 nM. To B4 belongs 0.92 nM; to B5, 1.02 nM; to B6, 5.92 nM. To B7 belongs 4.37 nM; to B8, 2.23 nM; to B9, 1.32 nM. Consider B10, for which the Kd turned out to be 0.98 nM. As for B11, the figure is 8.72 nM; as for B12, 1.5 nM; as for B13, 2.21 nM. For B14, the Kd was determined as 1.22 nM. As for B15, the figure is 1.54 nM; as for B16, 1.08 nM.

On to B17, for which the Kd worked out at 1.79 nM. As to B18, the Kd was 1.64 nM. For B19, the Kd came out at 6.15 nM. As for B20, the figure is 8.65 nM. To B21 belongs 1.29 nM. For the molecule B22, the Kd was 3.05 nM. Turning to B23, the Kd came out at 1.28 nM. For the molecule B24, the Kd turned out to be 4.97 nM. As for B25, the figure is 1.66 nM. As for B26, the figure is 1.11 nM.

B27: the Kd turned out to be 0.79 nM. To B28 belongs 1.15 nM; to B29, 10.5 nM. As for B30, the figure is 0.56 nM; as for B31, 0.61 nM; as for B32, 2.24 nM.

As to B33, the Kd was determined as 2.36 nM.

B34: the Kd was determined as 4.38 nM. To B35 belongs 4.49 nM; to B36, 1.03 nM; to B37, 4.11 nM.

With B38, the Kd is 1.01 nM. As for B39, the Kd worked out at 0.98 nM. To B40 belongs 2.99 nM. Turning to B41, the Kd is 2.08 nM. In the case of B42, the Kd came to 0.57 nM. To B43 belongs 1.38 nM; to B44, 1.09 nM.

The values above are taken from patent US20250368745A1 (published 2025).
